From US20220267379A1 (ECOLE POLYTECHNIQUE FEDERALE DE LAUSANNE EPFL, published 2022) come the findings set out here.

Positions of bridges follow the written chain, without caps; N, C: chain ends. Non-standard residues stand in square brackets, D forms with d. Primed or numbered codes have the meaning given here. Chains are numbered I, II in the order given. No end group written: not given here. *: point of attachment. Palmitoyl = CCCCCCCCCCCCCCCC(=O)*; PEG2′ = PEG2 spacer unit

The target of experiment [1] is T1, human serum albumin (HSA) (human, UniProt P02768 25-609). As to the kind of experiment: fluorescence polarization. For orientation: Fluorescence polarisation rises when a labelled molecule tumbles more slowly, as on binding a larger partner.
In experiment [2] the target is T2, mouse serum albumin (MSA) (mouse, UniProt P07724 25-608).
T2 construct: also called mouse albumin
T2 sequence (P07724 25-608 limits assumed): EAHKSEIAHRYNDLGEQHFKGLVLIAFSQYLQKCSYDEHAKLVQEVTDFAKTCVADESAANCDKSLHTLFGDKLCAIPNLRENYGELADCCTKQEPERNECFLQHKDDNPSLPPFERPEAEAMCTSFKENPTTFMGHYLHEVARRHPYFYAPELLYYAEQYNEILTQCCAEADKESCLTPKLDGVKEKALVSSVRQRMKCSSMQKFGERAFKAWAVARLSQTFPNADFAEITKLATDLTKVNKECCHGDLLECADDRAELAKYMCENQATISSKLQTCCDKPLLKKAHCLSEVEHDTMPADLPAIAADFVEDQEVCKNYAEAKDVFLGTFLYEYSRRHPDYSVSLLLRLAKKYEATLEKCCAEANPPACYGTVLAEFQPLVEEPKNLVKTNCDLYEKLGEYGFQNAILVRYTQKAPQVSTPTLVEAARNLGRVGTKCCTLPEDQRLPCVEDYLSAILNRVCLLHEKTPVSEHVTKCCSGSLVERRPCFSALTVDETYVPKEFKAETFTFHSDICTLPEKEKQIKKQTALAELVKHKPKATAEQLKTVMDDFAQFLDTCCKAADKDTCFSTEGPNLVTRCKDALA
The experiment is described as follows: fluorescence polarization, dilution series of mouse albumin in PBS.

Experiment [3] deals with T1, human serum albumin (HSA). The experiment is described as follows: fluorescence polarization, dilution series of human serum.
Experimental: (b) Kd values of conjugates for HSA assessed by fluorescence polarization. A dilution serious of human serum was used. […] All data represent the mean of three measurements ±SD.
Thus, the dissociation constants (Kd) of the molecules for HSA were tested with a fluorescence polarization (FP) assay using the fluorescein moiety in the albumin tag. The fluorescence anisotropy of the molecules in a dilution series of human serum was measured and Kd values were calculated.
Experiment [4] deals with T3, human Kallikrein-related peptidase 5 (hKLK5) (human, UniProt Q9Y337 67-293, limits assumed).
T3 construct: Active protease used in substrate-based activity assays and immobilized for phage selection; also called stratum corneum tryptic enzyme (SCTE)
T3 sequence (Q9Y337 67-293 limits assumed): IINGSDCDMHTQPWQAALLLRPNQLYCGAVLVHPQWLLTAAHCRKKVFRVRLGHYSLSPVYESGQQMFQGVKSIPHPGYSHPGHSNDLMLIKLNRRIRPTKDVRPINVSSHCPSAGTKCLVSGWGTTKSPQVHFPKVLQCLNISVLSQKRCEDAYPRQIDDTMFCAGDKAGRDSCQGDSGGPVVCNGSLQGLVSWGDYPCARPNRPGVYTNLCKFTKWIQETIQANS
As to the kind of experiment: substrate-based activity assay in the presence of 25 µM HSA.
Experimental: (§1) (a) Kᵢ values of N- and C-terminal tag conjugates in comparison to unconjugated inhibitors measured by inhibition assays in the presence of HSA. […] All data represent the mean of three measurements ±SD.
(§2) Even though the actual concentration of albumin in human blood is at around 600 μM and thus much higher, a higher albumin concentration in the assay was not possible, as it interfered with the protease activity.

Experiment [5] deals with T4, human Kallikrein-related peptidase 7 (hKLK7) (human, UniProt P49862 30-253).
T4 construct: Active protease used in substrate-based activity assays and immobilized for phage selection; also called stratum corneum chymotryptic enzyme (SCCE)
T4 sequence (P49862 30-253 limits assumed): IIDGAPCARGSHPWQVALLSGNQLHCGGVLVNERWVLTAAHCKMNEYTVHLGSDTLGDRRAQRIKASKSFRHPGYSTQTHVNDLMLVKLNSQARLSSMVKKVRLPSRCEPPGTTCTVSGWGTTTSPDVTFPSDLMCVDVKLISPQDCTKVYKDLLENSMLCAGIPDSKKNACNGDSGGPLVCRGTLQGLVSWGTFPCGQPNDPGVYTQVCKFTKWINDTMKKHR
The description is as above.
Experimental: as §1, §2

The target in experiment [6] is T5, FXIIa (Factor XIIa) (human, UniProt P00748 373-615, limits assumed).
T5 sequence (looked up): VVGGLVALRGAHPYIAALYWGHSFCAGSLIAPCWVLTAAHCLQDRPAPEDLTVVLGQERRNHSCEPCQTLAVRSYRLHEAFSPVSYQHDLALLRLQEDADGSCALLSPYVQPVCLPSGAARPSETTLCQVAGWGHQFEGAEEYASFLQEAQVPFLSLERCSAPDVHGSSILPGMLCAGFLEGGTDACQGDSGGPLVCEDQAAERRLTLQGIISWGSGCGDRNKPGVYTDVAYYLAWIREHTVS
As to the kind of experiment: substrate-based activity assay, off-target selectivity.

Experiment [7] concerns the target T4, human Kallikrein-related peptidase 7 …. As to the kind of experiment: substrate-based activity assay.

B1: albumin tag variant peptide 284 (peptide)
peptide: EYEKEYEK
modifications: 2-naphthalenecarboxylic acid cap at the N-terminus (based on peptide 266: on a gamma-coupled glutamic acid, through PEG2); Lys 4 side chain acylated with palmitic acid; additional C-terminal Lys carries 5(6)-carboxyfluorescein on its side chain
notes: also called tag variant 284
In the case of B1, in experiment [1], the “factor of improvement in HSA affinity over peptide 266” value came out at 4 fold.

B2: albumin tag variant peptide 266 (peptide)
peptide: EYEKEYEK
modifications: benzoic acid coupled to the amine of a gamma-coupled glutamic acid at the N-terminus (through PEG2); Lys 4 side chain acylated with palmitic acid; additional C-terminal Lys carries 5(6)-carboxyfluorescein on its side chain
On to B2, for which the “further factor recovered in HSA affinity by the first aromatic ring” value in experiment [1] amounted to 2 fold.

B3: SSSKSSS-tag (peptide)
peptide: SSSK(Palmitoyl)SSS
modifications: also: fluorescein label, position not given here
notes: Tag variant with all Tyr and Glu replaced by Ser; also called tag composed of Ser residues
As to B3, the binding result in experiment [2] is “binds”.

B4: albumin tag variant peptide 282 (peptide)
peptide: EYEKEYEK
modifications: biphenyl-3-carboxylic acid cap at the N-terminus (based on peptide 266: on a gamma-coupled glutamic acid, through PEG2); Lys 4 side chain acylated with palmitic acid; additional C-terminal Lys carries 5(6)-carboxyfluorescein on its side chain
notes: also called tag variant 282
With B4, the “factor of improvement in HSA affinity over peptide 266” value in experiment [1] was 4 fold.

B5: KLK5 inhibitor 035-tag (C-terminal albumin tag conjugate of 035) (peptide)
peptide 1: GCTRQYPCGKG
peptide 2: EYEK(Palmitoyl)EYE
modifications: bridge I:2-I:8; not fully specified (some residues, N-terminus, bridges); also: chain 2 (albumin tag) attached via PEG2 to Lys10 side chain of chain 1 (branched)
As to B5, the “fold loss in affinity (Kd) for HSA on conjugation” value in experiment [3] stood at 2.1 fold. The “fold improvement in the Ki value compared to the cyclic peptide alone” value in experiment [4] turned out to be 1.8 fold. The binding result in experiment [2] is on record as “binds”.

B6: N-terminal albumin tag conjugate of KLK7 inhibitor 096 (peptide)
peptide 1: {5(6)‑carboxyfluorescein}-EYEK(Palmitoyl)EYE[PEG2′]
peptide 2: PCLYLARCS
modifications: linker II:2-II:8 via 1,3‑dibromoacetone; also: tag C-terminus joined through PEG2 to inhibitor N-terminus (one linear molecule)
notes: also called N-terminal conjugate (KLK7)
The Ki is a dissociation constant, usually derived from enzyme kinetics or from competition with a known ligand. As to B6, the binding result in experiment [3] is given as “binds”. In experiment [5], the Ki is 0.106 µM and the “fold loss in activity compared to the cyclic peptide alone” value turned out to be 6.6 fold.
In the case of GCTRQYPC (linker 2-8 via 1,3‑dibromoacetone, also called compound 035) [peptide 035 (lead KLK5 inhibitor)], the “fold weaker than the Ki value for KLK5” value in experiment [6] is approximately 4300 fold.

B7: N-terminal albumin tag conjugate of KLK5 inhibitor 035 (peptide)
peptide 1: {5(6)‑carboxyfluorescein}-EYEK(Palmitoyl)EYE
peptide 2: GCTRQYPC
modifications: bridge II:2-II:8; not fully specified (C-terminus, bridges); also: chain 1 C-terminus joined via PEG2 to N-terminus of chain 2 (one linear molecule)
notes: also called N-terminal conjugate (KLK5)
As for B7, the binding result in experiment [3] was “binds”. In experiment [4], the Ki amounted to 0.023 µM and the “fold loss in activity compared to the cyclic peptide alone” value was determined as 10 fold.

B8: albumin tag variant peptide 263 (peptide)
peptide: EYEKEYEK
modifications: pentanedioic acid appended to the N-terminus through a PEG2 unit; Lys 4 side chain acylated with palmitic acid; additional C-terminal Lys carries 5(6)-carboxyfluorescein on its side chain
On to B8, for which, in experiment [1], the “factor recovered in HSA affinity compared to tag-F” value is 2 fold.

B9: KLK7 inhibitor 096-tag (C-terminal albumin tag conjugate of 096) (peptide)
peptide 1: PCLYLARCSGKG
peptide 2: EYEK(Palmitoyl)EYE
modifications: bridge I:2-I:8; not fully specified (some residues, N-terminus, bridges); also: chain 2 (albumin tag) attached via PEG2 to Lys11 side chain of chain 1 (branched)
notes: Branched molecule
On to B9, for which the “fold loss in affinity (Kd) for HSA on conjugation” value in experiment [3] came out at 2.9 fold.
On to PCLYLARCS (linker 2-8 via 1,3‑dibromoacetone) [peptide 096 (lead KLK7 inhibitor)], for which the “fold better activity than peptide 114” value in experiment [7] was found to be 2 fold.
